How the values were obtained:
mouse serum albumin = biological target: T1, mouse serum albumin (mouse, UniProt P07724 25-608); test: SPR, Biacore T200, single cycle kinetics, MSA amine coupled to CM5 chip, pH 7.4
T1 construct: also called MSA
Procedure: (§1) Binding studies with human, cyno and mouse serum albumin in pH 7.4 and pH 6.0 were carried out using single cycle kinetics on a Biacore T200. Serum albumin (HSA, CSA, MSA) were coupled to CM5 chip by amine coupling using the amine reagent coupling kit GE Healthcare BR-1000-50. The surface of the chip was activated according to manufacturer's instructions. Serum albumin (HSA, CSA, MSA) were captured and cross-linked to the sensor chip surface by injecting of serum albumin (HSA, CSA, MSA) in 10 mM sodium acetate, pH 5.0. Following with the injection of 1M Ethanolamine to stabilise the serum albumin on the surface. With this procedure around 300 RU were immobilized.
(§2) For kinetics measurement four-fold serial dilution of the VH single domain antibodies (194D04-2 or 191 E02-2) in either PBST pH 7.4 or PBST pH 6.0 were injected with 120s association and 300s dissociation at the flow rate of 45 μl/min at 25° C. Binding response was corrected by subtracting both the blank flow cell and from buffer run on the same flow cell. The traces were fitted using 1:1 model.

Human Serum Albumin [1] = biological target: T2, Human Serum Albumin (human, UniProt P02768 25-609); test: SPR, Biacore T200, single cycle kinetics, albumin amine coupled to CM5 chip, 25 C, pH 6.0
T2 construct: also called HSA
Procedure: as §1, §2

Cyno Serum Albumin [2] = biological target: T3, Cyno Serum Albumin (cyno, UniProt A2V9Z4 25-608); test: as above
T3 construct: Serum purified CSA (Abcam ab184894) is named for immunisation; also called CSA; cynomolgus serum albumin
Procedure: as §1, §2

Human Serum Albumin [3] = biological target: T2, Human Serum Albumin; test: SPR, Biacore T200, single cycle kinetics, albumin amine coupled to CM5 chip, 25 C, pH 7.4
Procedure: as §1, §2

Cyno Serum Albumin [4] = biological target: T3, Cyno Serum Albumin; test: as above
Procedure: as §1, §2

binding result (mouse serum albumin) | Kd (Human Serum Albumin [1]) [nM] | koff (Human Serum Albumin [1]) [s⁻¹] | kon (Human Serum Albumin [1]) [M⁻¹ s⁻¹] | Kd (Cyno Serum Albumin [2]) [nM] | koff (Cyno Serum Albumin [2]) [s⁻¹] | kon (Cyno Serum Albumin [2]) [M⁻¹ s⁻¹] | Kd (Human Serum Albumin [3]) [nM] | koff (Human Serum Albumin [3]) [s⁻¹] | kon (Human Serum Albumin [3]) [M⁻¹ s⁻¹] | Kd (Cyno Serum Albumin [4]) [nM] | koff (Cyno Serum Albumin [4]) [s⁻¹] | kon (Cyno Serum Albumin [4]) [M⁻¹ s⁻¹] | Binder
no binding | 37 | 0.031 | 840000 | 4.9 | 0.0032 | 640000 | 30 | 0.019 | 620000 | 11 | 0.0065 | 570000 | SEQ ID NO. 5 (VH single domain antibody binding HSA) (VHH, Human VH single domain antibody (Humabody) from a transgenic mouse, not a camelid VHH; also called Humabody 2; Humabody VH) VHH: EVQLLESGGGLVKPGGSLRLSCAASGFTVSSYTMNWVRQAPGKGLEWVSSISSSGRYIYYADSVKGRFTISRDNAKNSLYLQMNSLRAEDTAVYYCARDPRMVGNPHEFDIWGQGTMVTVSS
no binding | 600 | 0.32 | 530000 | 99 | 0.0644 | 640000 | 590 | 0.19 | 330000 | 100 | 0.041 | 290000 | SEQ ID NO. 30 (VH single domain antibody binding HSA, variant of SEQ ID NO. 1) (VHH, Human VH single domain antibody (Humabody) from a transgenic mouse, not a camelid VHH; also called Humabody VH; variant of Humabody 1) VHH: EVQLVESGGGLVKPGGSLRLSCAASGFTFSNYNMNWVRQAPGKGLEWVSSISSAGTHIYYADSVKGRFTISRDNAKNSLYLQMNSLRAEDTAVYYCARDPHSTGWYKDFDYWGQGTLVTVSS

Source: US20220227850A1 (CRESCENDO BIOLOGICS, published 2022)
